Data published in article PMC2581521 (Developmental cell, 2008).

T1: Xenopus Chordin-Myc (Xenopus, UniProt Q91713 20-941)
T1 sequence (looked up): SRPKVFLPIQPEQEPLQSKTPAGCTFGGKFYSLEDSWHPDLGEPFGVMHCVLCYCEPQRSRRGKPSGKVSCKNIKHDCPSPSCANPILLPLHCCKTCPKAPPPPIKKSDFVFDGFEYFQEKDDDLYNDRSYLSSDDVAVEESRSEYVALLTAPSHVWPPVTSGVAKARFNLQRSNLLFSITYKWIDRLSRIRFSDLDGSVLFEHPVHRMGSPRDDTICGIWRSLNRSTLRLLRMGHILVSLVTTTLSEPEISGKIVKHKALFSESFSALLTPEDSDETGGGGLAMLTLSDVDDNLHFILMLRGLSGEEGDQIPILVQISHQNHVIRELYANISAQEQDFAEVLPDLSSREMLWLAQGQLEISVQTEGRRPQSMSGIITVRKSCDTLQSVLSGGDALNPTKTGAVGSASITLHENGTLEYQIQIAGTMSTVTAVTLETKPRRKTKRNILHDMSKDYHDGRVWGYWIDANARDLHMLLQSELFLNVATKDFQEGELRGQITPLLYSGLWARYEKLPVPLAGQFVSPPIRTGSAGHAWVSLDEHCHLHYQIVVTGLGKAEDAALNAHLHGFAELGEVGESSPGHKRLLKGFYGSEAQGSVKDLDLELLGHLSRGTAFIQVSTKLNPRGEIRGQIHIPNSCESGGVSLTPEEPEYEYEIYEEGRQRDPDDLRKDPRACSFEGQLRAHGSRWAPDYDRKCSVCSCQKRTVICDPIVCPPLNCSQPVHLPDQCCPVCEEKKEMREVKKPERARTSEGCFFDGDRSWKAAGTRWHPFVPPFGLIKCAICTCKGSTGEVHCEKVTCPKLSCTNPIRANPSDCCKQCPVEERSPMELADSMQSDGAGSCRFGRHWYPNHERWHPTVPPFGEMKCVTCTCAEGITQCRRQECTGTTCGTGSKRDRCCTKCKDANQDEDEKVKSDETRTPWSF

B1: Twisted gastrulation (recombinant mouse Tsg) (natural protein, UniProt Q9EP52 25-222, looked up)
chain: CNKALCASDVSKCLIQELCQCRPGEGNCPCCKECMLCLGALWDECCDCVGMCNPRNYSDTPPTSKSTVEELHEPIPSLFRALTEGDTQLNWNIVSFPVAEELSHHENLVSFLETVNQLHHQNVSVPSNNVHAPFPSDKERMCTVVYFDDCMSIHQCKISCESMGASKYRWFHNACCECIGPECIDYGSKTVKCMNCMF
B2: Crossveinless-2 (recombinant mouse CV2) (natural protein)
chain: not shown

Experiments:
[1] = biological target: B2; experiment: co-IP
[2] = biological target: B1; experiment: cross-linking
Xenopus Chordin-Myc = biological target: T1, Xenopus Chordin-Myc; experiment: cross-linking

| Binder | binding result [1] | binding result [2] | binding result (Xenopus Chordin-Myc) |
| --- | --- | --- | --- |
| B1 | binds | – | – |
| Bone Morphogenetic Protein 4 (recombinant human BMP4) (ligand, UniProt P12644 293-408, looked up) SPKHHSQRARKKNKNCRRHSLYVDFSDVGWNDWIVAPPGYQAFYCHGDCPFPLADHLNSTNHAIVQTLVNSVNSSIPKACCVPTELSAISMLYLDEYDKVVLKNYQEMVVEGCGCR | – | binds | binds |
| B2 | – | – | binds |
